The test addresses Tulane virus (TV) virions, CsCl gradient-purified (Tulane virus).

Take “Maackia amurensis leukoagglutinin (MAL), biotinylated (from UniProt P0DKL3 30-278) (natural protein)”: the TV infectivity in LLC-MK2 cells by plaque assay after treatment with MAL (dose series up to 100 μg/mL; maximum enhancement at 50 μg/mL), percent of the untreated control came out at 262%.

Values taken from PMC4491846.
